Changes are numbered by the printed parent chain. Each block holds one binder with its values, some of them ahead of it.
Columns and labels:
[1] = biological target: T1, Human-TrKA receptor on the surface of HEK293T-HumanTrKA cells (human, UniProt P04629 33-796); experiment: flow cytometry on HEK293T-HumanTrkA cells
T1 construct: whole, on cells
Description: (§1) Lentiviral technology was used to construct HEK293T-HumanTrkA cell model. […] Flow cytometry was used to detect the binding of each concentration gradient humanized antibody to the Human-TrKA receptor on the surface of HEK293T-HumanTrKA cells, and the binding ability of each humanized antibody to Human-TrKA was evaluated at the cellular level. In the FIG. 2, the EC50 (half binding concentration) value reflected the binding ability of the antibody to Human-TrKA; the smaller the EC50 value, the stronger the binding ability of the antibody to Human-TrKA, and the higher the affinity of the antibody. It was generally believed that the EC50 value of high-affinity antibodies was lower than 1.5 μg/mL.

[2] = biological target: T2, Mouse-TrKA on the surface of HEK293T-MouseTrKA cells (mouse, UniProt Q3UFB7 34-799); experiment: flow cytometry on HEK293T-MouseTrkA cells
T2 construct: whole, on cells
Description: as §1, with “construct HEK293T-MouseTrkA” for “construct HEK293T-HumanTrkA”, “of HEK293T-MouseTrKA” for “of HEK293T-HumanTrKA”, “to Mouse-TrKA” for “to Human-TrKA”, “FIG. 3,” for “FIG. 2,”, “to Mouse-TrKA;” for “to Human-TrKA;”, “to Mouse-TrKA,” for “to Human-TrKA,”

[3] = biological target: T2, Mouse-TrKA on the surface of …; experiment: flow cytometry competition: inhibition of biotinylated Mouse-NGF binding to HEK293T-MouseTrkA cells
Description: (§2) Mouse-NGF was biotinylated, and Mouse-NGF could bind to the extracellular region of Mouse-TrkA protein on HEK293T-MouseTrkA cells, and anti-TrkA monoclonal antibodies could also bind to the extracellular region of Mouse-TrkA protein on HEK293T-MouseTrkA cells. […] In the FIG. 5, the parent% value reflected the Mouse-NGF signal that bound to the extracellular region of the Mouse-TrKA protein on HEK293T-MouseTrkA cells.

[4] = biological target: T1, Human-TrKA receptor on the surface of …; experiment: flow cytometry competition: inhibition of biotinylated Human-NGF binding to HEK293T-HumanTrkA cells
Description: as §2, with “Human-NGF” for “Mouse-NGF”, “Human-TrkA” for “Mouse-TrkA”, “HEK293T-HumanTrkA” for “HEK293T-MouseTrkA”, “4,” for “5,”, “Human-TrKA” for “Mouse-TrKA”

[5] = biological target: CD16 receptor (Fc gamma RIIIA) on Jurkat-NFAT-Luc-CD16 cells (UniProt P08637 17-254, limits assumed); experiment: cell-based or functional assay
[6] = biological target: TrkA protein on the surface of NIH-3T3-TrkA cells; experiment: cell-based or functional assay

EC50 [1]: 0.127 µg/mL
EC50 [2]: 0.111 µg/mL
IC50 [3]: 0.283 µg/mL
IC50 [4]: 0.741 µg/mL
B1: humanized anti-TrkA monoclonal antibody H3L1-IgG4 (antibody, V domains shown)
VH: EVQLLESGGGLVQPGGSLKLSCKASGYAFTNYWLGWMKQRPGHGLEWIGDFYPRTGNTFYNENFKGQVTMSVDKSITTAYLQWNSLKASDTAMYYCARAGTGFDYWGQGTTLTVSS
VL: EIVMTQSPATLSLSVGERVTLSCKASENVGGYVSWYQQKPDQSPKLLIYGASSRHTGVPDRFTGSGSETDFTLTISSVQAEDLAAYHCGQNYIYPFTFGGGTKLEIKR

EC50 [1]: 0.168 µg/mL
EC50 [2]: 0.125 µg/mL
IC50 [3]: 0.252 µg/mL
IC50 [4]: 0.665 µg/mL
B2: humanized anti-TrkA monoclonal antibody H3L2-IgG4 (antibody, V domains shown)
VH: B1 VH
VL: B1 VL with H55A

ADCC activity, luciferase reporter (Mean Value), half of the peak concentration EC50 [5]: 0.0228 µg/mL
B3: humanized anti-TrkA monoclonal antibody H1L1-IgG1 (antibody)
VH: EVQLLESGGGLVQPGGSLKLSCKASGYAFTNYWLGWMKQRPGHGLEWIGDFYPRTGNTFYNENFKGKVTLTADKSSNTAYMQLSSLTSEDSAVYLCARAGTGFDYWGQGTTLTVSS
light: EIVMTQSPATLSLSVGERVTLSCKASENVGGYVSWYQQKPDQSPKLLIYGASSRHTGVPDRFTGSGSETDFTLTISSVQAEDLAAYHCGQNYIYPFTFGGGTKLEIKRTVAAPSVFIFPPSDEQLKSGTASVVCLLNNFYPREAKVQWKVDNALQSGNSQESVTEQDSKDSTYSLSSTLTLSKADYEKHKVYACEVTHQGLSSPVTKSFNRGEC
CDC activity, killing of NIH-3T3-TrKA cells (CCK8 cell viability), half-peak concentration IC50 [6]: 0.222 µg/mL

down-regulation of the level of TrkA protein tyrosine phosphorylation under NGF stimulation (AlphaLISA, p-TrkA), IC50 [6]: 0.0207 µg/mL
EC50 [2]: 0.134 µg/mL
IC50 [3]: 0.385 µg/mL
B4: humanized anti-TrkA monoclonal antibody H1L1-IgG4 (antibody)
heavy: EVQLLESGGGLVQPGGSLKLSCKASGYAFTNYWLGWMKQRPGHGLEWIGDFYPRTGNTFYNENFKGKVTLTADKSSNTAYMQLSSLTSEDSAVYLCARAGTGFDYWGQGTTLTVSSASTKGPSVFPLAPCSRSTSESTAALGCLVKDYFPEPVTVSWNSGALTSGVHTFPAVLQSSGLYSLSSVVTVPSSSLGTKTYTCNVDHKPSNTKVDKRVESKYGPPCPPCPAPEAAGGPSVFLFPPKPKDTLMISRTPEVTCVVVDVSQEDPEVQFNWYVDGVEVHNAKTKPREEQFNSTYRVVSVLTVLHQDWLNGKEYKCKVSNKGLPSSIEKTISKAKGQPREPQVYTLPPSQEEMTKNQVSLTCLVKGFYPSDIAVEWESNGQPENNYKTTPPVLDSDGSFFLYSKLTVDKSRWQEGNVFSCSVMHEALHNHYTQKSLSLSLG
light: B3 light
notes: H1 + L1, IGHG4 heavy chain isotype (mutated Fc), kappa light chain

EC50 [1]: 0.0867 µg/mL
EC50 [2]: 0.105 µg/mL
IC50 [3]: 0.396 µg/mL
IC50 [4]: 0.881 µg/mL
B5: human-mouse chimeric anti-TrkA monoclonal antibody 23E12 (H0L0-IgG4) (antibody)
heavy: B4 heavy with E1Q, L5Q, E6Q, G9A, G10E, Q13R, G16T, L18V, L20I
light: B3 light with E1S, A9K, T10S, L11M, L13M
notes: Printed mostly as 'HOLO-IgG4' (letter O for zero); also called HOLO-IgG4; chimeric antibody

Reference: US20230357411A1 (published 2023)
